Target: hAgo1 (Homo sapiens, UniProt Q9UL18 1-857)
Test: X-ray crystallography

UGAGGUAGUAGGUUGUAUAGUU (ssRNA, 5' phosphate) [let-7 22mer guide]
binding result: binds

Reference: PMC3769929
